{
  "source": "paper PMC8280819",
  "about": "(The EMBO Journal, 2021)",
  "binders": {"B1": {"name": "100 bp upstream of mec (intragenic auxiliary promoter) (dsDNA)", "DNA 1": "AGTCGTGCGGTGCTGGCCGGCGTGCTCAATGCTCAGCCGGTAGCCGGAATACCGACCTACCGTGACATGTTTTCCCGGAGCATTCGGGTCTTGAAACTCA", "DNA 2": "TATGAGTTTCAGGACCCGAATGCTCCCCGGGAAACATGTCACGGTAGGTCGGTATTCCGGCTACCGGCTGAGCATTGAGCACGCCGGCCAGCCACCGCACGACT"}},
  "key": {"His-SigH": {"target": "His-SigH (Mycobacterium tuberculosis H37Rv, UniProt P9WGH9 1-216)", "sequence (P9WGH9 whole entry)": "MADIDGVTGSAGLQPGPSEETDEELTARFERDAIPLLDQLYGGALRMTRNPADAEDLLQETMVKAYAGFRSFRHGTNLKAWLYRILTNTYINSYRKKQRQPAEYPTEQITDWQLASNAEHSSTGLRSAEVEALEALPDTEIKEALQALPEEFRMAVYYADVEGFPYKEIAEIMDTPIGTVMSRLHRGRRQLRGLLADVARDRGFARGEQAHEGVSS", "assay": "EMSA"}, "His-AosR": {"target": "T1, His-AosR (Mycobacterium tuberculosis H37Rv, UniProt P9WM25 1-218)", "T1 sequence": "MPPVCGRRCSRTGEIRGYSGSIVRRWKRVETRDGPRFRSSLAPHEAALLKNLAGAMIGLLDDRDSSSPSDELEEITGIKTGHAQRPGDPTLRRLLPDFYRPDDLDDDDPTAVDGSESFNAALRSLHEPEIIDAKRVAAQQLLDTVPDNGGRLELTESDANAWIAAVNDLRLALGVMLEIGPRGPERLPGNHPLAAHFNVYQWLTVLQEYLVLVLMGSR", "assay": "EMSA"}},
  "data": [
    {"binder": "B1", "values": [
      {"measurement": "binding result", "setting": "His-SigH", "result": "binds"},
      {"measurement": "binding result", "setting": "His-AosR", "result": "binds"}
    ]}
  ]
}
